In series [1] the target is full-length human α7 nicotinic acetylcholine receptor (human) (UniProt P36544). Nature of the series: SEC; S200 10/300 column, 20 mM HEPES pH 7.4, 300 mM NaCl, 0.2% DPC or 0.1% LDAO; pentamer fraction isolated. Background: In gel filtration, larger molecules generally elute earlier.
Series [2] deals with the molecule itself. Nature of the series: NMR structure (NMR and ESR restraints with Rosetta comparative modelling); α7nAChR TMD + ICD in LDAO micelles, pH 4.7, 25 mM NaCl, 318 K, with ivermectin; fivefold symmetry applied in the calculations.

One may read the stoichiometry N as a count of units in the complex or per binding partner.

Turning to “full-length human α7 nicotinic acetylcholine receptor (from UniProt P36544 23-502)”, the stoichiometry N in series [1] came to 5.

B1: human α7 nicotinic acetylcholine receptor construct containing the transmembrane and intracellular domains (α7nAChR TMD + ICD) (domain or fragment)
chain: LYYGLNLLIPCVLISALALLVFLLPADSGEKISLGITVLLSLTVFMLLVAEIMPATSDSVPLIAQYFASTMIIVGLSVVVTVIVLQYHHHDPDGGKMPKWTRVILLNWCAWFLRMKRPGEDKVRPACQHKQRRCSLASVEMSAVAPPPASNGNLLYIGFRGLDGVHCVPTPDSGVVCGRMACSPTHDEHLLHGGQPPEGDPDLAKILEEVRYIANRFRCQDESEAVCSEWKFAACVVDRLCLMAFSVFTIICTIGILMSAPNFVE
notes: α7 nicotinic acetylcholine receptor, human; construct with the transmembrane domain (TMD) and intracellular domain (ICD), without the extracellular domain; also called α7 TMD + ICD; α7 TMD-ICD; source: E. coli Rosetta 2(DE3) pLysS, purified (NiNTA, SEC pentamer fraction), in LDAO micelles
Take B1: the “stoichiometry N” value in series [2] is 5.

Values taken from publication PMC10020961, “Structural Elucidation of Ivermectin Binding to α7nAChR and the Induced Channel Desensitization” (ACS Chemical Neuroscience, 2023).
